Measurements: patent US20210181204A1

Target: eCry3.1Ab hybrid insecticidal protein
Assay: direct ELISA: eCry3.1Ab coated at 1 ug/ml, RGS-His HRP detection

B1: synNAPS13 variant Y44A (designed binder)
chain: RGSHHHHHHGSMVKVKFKRWGEEKEVDTSKILHVLRVGKYVRFSYDDNGKLGAGAVTEKDAPKELLDMLARAEREKK
- Binding (OD 450 nm): 0.4 OD 450 nm
